The values that follow come from article PMC5899157, “Directed evolution of broadly crossreactive chemokine-blocking antibodies efficacious in arthritis” (Nature Communications, 2018).

Experiment [1] deals with T1, mCXCL1 fused to the N-terminus of mouse serum albumin (mouse, UniProt P12850).
T1 construct: murine CXCL1, active protein form; also called ^NCXCL-SA^C; source: HEK293 (suspension-adapted), transient transfection, purified (Ni Sepharose excel, SEC); not shown: mouse serum albumin, C-terminal, kept; His6, C-terminal, kept
The experiment in a line: flow cytometry on cells; scFv displayed on yeast (Aga2p fusion) titrated with soluble CXCL-SA fusions bearing His6, 10 pM to 2 μM, overnight at 4 °C, PBSA washes, anti-His6 detection, binding/display MFI. As to conditions: one partner purified.

Experiment [2] addresses T2, hCXCL1 fused to the N-terminus of mouse serum albumin (human, UniProt P09341).
T2 construct: human CXCL1, active protein form; CXCL-SA fusions eluted as dimers to tetramers on SEC; also called ^NCXCL-SA^C; source: HEK293 (suspension-adapted), transient transfection, purified (Ni Sepharose excel, SEC); not shown: mouse serum albumin, C-terminal, kept; His6, C-terminal, kept
The experiment is described as above. The settings on record: one partner purified.

Experiment [3] has as its target T3, mCXCL3 displayed on the surface of yeast as N-terminal fusion of Aga2p (mouse, UniProt Q6W5C0).
T3 construct: murine CXCL3, active processed form; Construct CXCL-(G3)-c-myc-Aga2p; also called ^NCXCL-Aga2p^C; not shown: c-myc, C-terminal, kept; Aga2p, C-terminal, kept
Description: flow cytometry on cells; CXC chemokine displayed on yeast (CXCL-Aga2p) titrated with soluble SA-antibody fusions bearing His6, 10 pM to 20 μM, overnight at 4 °C, PBSA washes, anti-His6 detection, binding/display MFI. As to conditions: one partner purified. For orientation: In flow cytometry, cells or beads pass a laser one at a time.

The target in experiment [4] is T4, wild-type hCXCL1 displayed on the surface of yeast as N-terminal fusion of Aga2p (human, UniProt P09341).
T4 construct: human CXCL1, active processed form; Construct CXCL-(G3)-c-myc-Aga2p; also called hCXCL1^WT; ^NhCXCL1^WT-Aga2p^C; not shown: c-myc, C-terminal, kept; Aga2p, C-terminal, kept
The description is as above. The settings on record: one partner purified.

The target in experiment [5] is T5, biotinylated hCXCL8 (^NCXCL-G2-AviTag^C) (human, UniProt P10145, biotin on the defined lysine of the AviTag (BirA)).
T5 construct: human CXCL8, active form; Which processed form of CXCL8 (72 or 77 residues) was made is only in Supplementary Data 1; not shown: AviTag, C-terminal, kept; Fc (murine IgG2 CH2 and CH3), N-terminal, cleaved; His6, N-terminal, cleaved
Description: flow cytometry on cells; competition: biotinylated chemokine at its EC50 with varying antagonist (0.3 nM to 3 μM; 0.003 to 30 μM for SA157*) on HEK293 cells expressing CXCR1 or CXCR2; the antagonist and the chemokine. As to conditions: both partners purified.

Experiment [6] has as its target T6, CCL20 (Homo sapiens (assumed; species not …, UniProt P78556).
T6 construct: CC chemokine CCL20; Detected with streptavidin or anti-His6
The experiment in a line: flow cytometry on cells; polyreactivity test: scFv displayed on yeast, single concentration (2 μM) of soluble protein, detection with streptavidin or anti-His6. As to conditions: one partner purified.

The target of experiment [7] is T7, chemotactic factor C5a (Homo sapiens (assumed; species not …, UniProt P01031).
T7 construct: C5a, the chemotactic fragment cut from complement C5; Detected with streptavidin or anti-His6
Described as above. As to conditions: one partner purified.

For experiment [8], the target named is T8, CCL22 (human, UniProt O00626).
T8 construct: CC chemokine CCL22; Detected with streptavidin or anti-His6
The experiment is described as above. The settings on record: one partner purified.

Experiment [9] deals with T9, CCL28 (human, UniProt Q9NRJ3).
T9 construct: CC chemokine CCL28; Detected with streptavidin or anti-His6
The description is as above. As to conditions: one partner purified.

Experiment [10] deals with T10, mCXCL1 displayed on the surface of yeast as N-terminal fusion of Aga2p (mouse, UniProt P12850).
T10 construct: murine CXCL1, active processed form; Construct CXCL-(G3)-c-myc-Aga2p; also called ^NCXCL-Aga2p^C; not shown: c-myc, C-terminal, kept; Aga2p, C-terminal, kept
The experiment in a line: flow cytometry on cells; CXC chemokine displayed on yeast (CXCL-Aga2p) titrated with soluble SA-antibody fusions bearing His6, 10 pM to 20 μM, overnight at 4 °C, PBSA washes, anti-His6 detection, binding/display MFI. As to conditions: one partner purified.

In experiment [11] the target is T11, mCXCL2 displayed on the surface of yeast as N-terminal fusion of Aga2p (mouse, UniProt P10889).
T11 construct: murine CXCL2, active processed form; Construct CXCL-(G3)-c-myc-Aga2p; also called ^NCXCL-Aga2p^C; not shown: c-myc, C-terminal, kept; Aga2p, C-terminal, kept
Described as above. The settings on record: one partner purified.

For experiment [12], the target named is T12, mCXCL5 displayed on the surface of yeast as N-terminal fusion of Aga2p (mouse, UniProt P50228).
T12 construct: murine CXCL5, active processed form; Construct CXCL-(G3)-c-myc-Aga2p; also called ^NCXCL-Aga2p^C; not shown: c-myc, C-terminal, kept; Aga2p, C-terminal, kept
The experiment is described as above. The settings on record: one partner purified.

B1: CK129 single-chain variable antibody fragment, displayed on yeast (scFv, V domains shown)
VH: EVQLVESGGGLVQPGGSLRLSCAASGFNISSYGSMHWVRQAPGKGLEWVASIYPYSSSTYYADSVKGRFTISADTSKNTAYLQMNSLRAEDTAVYYCARGYGPWYAYSYFALDYWGQGTLVTVSS
VL: DIQMTQSPSPLSASVGDRVTITCRASQYGGYVAWYQQKPGKAPKLLIYGASLLYSGVPSRFSGGRSGTDFTLTISSLQPEDFATYYCQRGHALITFGQGTKVEIE
notes: VL of CK129 (CK4 lineage, synthetic library G); flexible linker between VL and VH; VH of CK129; Construct Aga2p-HA-(G4S)3-VL-linker-VH-c-myc; VL-VH orientation; not shown: Aga2p, N-terminal, kept; HA, N-terminal, kept; c-myc, C-terminal, kept
Usually Kd stands for the equilibrium constant for the complex coming apart. A high value points to weaker binding. With B1, the Kd in [1] stood at 0.93 nM; in experiment [2], 0.79 nM.

B2: SA129, mouse serum albumin fused to the CK129 single-chain variable antibody fragment (scFv, V domains shown)
VH: B1 VH
VL: B1 VL
notes: VL of CK129, as in m1; linker between VL and VH; the scFv was amplified from the pCT-CON vector; VH of CK129, as in m1; Construct SA-(G4S)3-scFv-G4S-His6; also called ^NSA-scFv^C; source: HEK293 (suspension-adapted), transient transfection, purified (Ni Sepharose excel, SEC); not shown: mouse serum albumin, N-terminal, kept; His6, C-terminal, kept
Take B2: the binding result in experiment [3] is given as “no binding (tested: up to 20 μM (methods))”. Also, the Kd in [4] is approximately 2.5 nM.

B3: SA157*, separate mouse serum albumin fusions of the VL and VH domains of CK157 mixed in equimolar amounts (other)
VH: EVQLVESGGGLVQPGGSLRLSCAASGSNPYYYGGTHWVRQAPGEELEWVASIGSYPGYTDYADSVKGRFTISADTSKNTAYLQMNSLRAEDTAVYYCARHYYWYDATDYWGQGTLVTVSS
VL: DIQMTQSPSSLSASVGDRVTITCRASQSYGGVAWYQQKPGKAPKLLIYSASYLYSGVPSRFSGSRSGTDFTLTISSLQPEDFATYYCQQPSHLITFGQGTEVEIK
notes: VL of CK157, as in m3; VH of CK157, as in m3; Constructs SA-(G4S)3-VL-G4S-His6 and SA-(G4S)3-VH-G4S-His6; not a single chain with a linker; also called ^NSA-VL^C and ^NSA-VH^C; not shown: mouse serum albumin, N-terminal, kept; His6, C-terminal, kept
B3: the Kd in experiment [4] was approximately 1500 nM. Further, in experiment [5], the binding result is reported as “binds”.

B4: CK157 single-chain variable antibody fragment, displayed on yeast (scFv, V domains shown)
VH: B3 VH
VL: B3 VL
notes: VL of CK157 (CK2 lineage, made by combinatorial site-directed mutagenesis); flexible linker between VL and VH; VH of CK157; Construct Aga2p-HA-(G4S)3-VL-linker-VH-c-myc; VL-VH orientation; not shown: Aga2p, N-terminal, kept; HA, N-terminal, kept; c-myc, C-terminal, kept
Regarding B4, the binding result in experiment [6], in [7], in experiment [8] and in experiment [9] was “binds” in each case.

B5: SA138, mouse serum albumin fused to the CK138 single-chain variable antibody fragment (scFv, V domains shown)
VH: EVQLVESDGGLVQPGGSLRLSCAASGFNLSYYGMHWVRQAPGKGLEWVAYIASYPGYTSYADSVKGRFTISADTSKNTAYLQMNSLRAEDTAVYYCARSGYSYSPYYSWFSAGMNYWGQGALVTVSS
VL: AIQMTRSPSSLSASVGDRVTITCRASQYHDGSAAWYQQKPGKAPKLLIYGASYLYSGVPSRFSGSRSGTDFTLTISSLQPEDFATYYCQQSSYSLITFGQGTKVEIK
notes: VL of CK138, as in m2; linker between VL and VH; the scFv was amplified from the pCT-CON vector; VH of CK138, as in m2; Construct SA-(G4S)3-scFv-G4S-His6; also called ^NSA-scFv^C; source: HEK293 (suspension-adapted), transient transfection, purified (Ni Sepharose excel, SEC); not shown: mouse serum albumin, N-terminal, kept; His6, C-terminal, kept
Regarding B5, the binding result in experiment [3], in experiment [10], in experiment [11], in experiment [12] and in experiment [5] was “binds” in each case. In experiment [4], this molecule returned a Kd of approximately 100 nM.
